Reference: patent publication US20160046721A1

How the values were obtained:
ER-α36 LBD (3T3 Clone#4) = assay: flow cytometry on 3T3 cells, ER-α36 LBD Clone#4, isotype control at 2.5 µg/ml
human ER-α36 (human) [1] = biological target: human ER-α36 (human) (UniProt P03372); assay: flow cytometry on 3T3 cells, ER-α36 Full length Clone#2, isotype control at 2.5 µg/ml
human ER-α36 (human) [2] = biological target: human ER-α36 (human) (UniProt P03372); assay: flow cytometry on MHCC-97H cells, isotype control; second lower panel without sample name, assigned by peak height against histogram 3 of the overlay
human ER-α36 (human) [3] = biological target: human ER-α36 (human) (UniProt P03372); assay: flow cytometry on K562 cells, isotype control, concentration not given
human ER-α36 (human) [4] = biological target: human ER-α36 (human) (UniProt P03372); assay: flow cytometry on MCF-7 cells, isotype control; lower left panel, which carries no sample name: assigned by peak height and by the order of the samples
human ER-α36 (human) [5] = biological target: human ER-α36 (human) (UniProt P03372); assay: flow cytometry on MHCC-97H cells, isotype control; first lower panel without sample name, assigned by peak height (about 75) against histogram 4 of the overlay
human ER-α36 (human) [6] = biological target: human ER-α36 (human) (UniProt P03372); assay: flow cytometry on SK-BR-3 cells, isotype control; lower left panel without sample name, assigned by the order of the samples

Sequence of human ER-α36 (human) (P03372 other isoform, or with tags, fused parts or gaps): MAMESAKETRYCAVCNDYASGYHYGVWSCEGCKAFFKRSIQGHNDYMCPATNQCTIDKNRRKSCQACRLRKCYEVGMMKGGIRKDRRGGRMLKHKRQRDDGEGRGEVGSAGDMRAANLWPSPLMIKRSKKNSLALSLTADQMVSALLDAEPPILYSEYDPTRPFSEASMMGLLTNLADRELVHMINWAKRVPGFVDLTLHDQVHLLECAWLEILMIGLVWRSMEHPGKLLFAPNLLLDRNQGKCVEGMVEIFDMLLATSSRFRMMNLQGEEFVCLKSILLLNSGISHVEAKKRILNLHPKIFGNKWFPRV
Sequence of ER-α36 LBD (3T3 Clone#4) (single chain, as listed by the source): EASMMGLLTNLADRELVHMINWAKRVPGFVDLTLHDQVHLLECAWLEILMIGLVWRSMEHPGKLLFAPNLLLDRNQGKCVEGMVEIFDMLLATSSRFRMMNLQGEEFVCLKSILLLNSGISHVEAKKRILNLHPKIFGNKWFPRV

%Gated (region B) (ER-α36 LBD (3T3 Clone#4)): 4.93%
%Gated (region B) (human ER-α36 (human) [1]): 4.86%
Yellow-A subset (percent of cells in the gate) (human ER-α36 (human) [2]): 5.68%
Geom. Mean FL1 (human ER-α36 (human) [3]): 24.3
Yellow-A subset (percent of cells in the gate) (human ER-α36 (human) [4]): 19.9%
Yellow-A subset (percent of cells in the gate) (human ER-α36 (human) [5]): 6.82%
Yellow-A subset (percent of cells in the gate) (human ER-α36 (human) [6]): 13.1%
Substance: mouse IgG2b (antibody)
